We go through one molecule from patent US20210322404A1, “FGFR REGULATION FOR THE TREATMENT OF VIRAL INFECTIONS” (ETH ZURICH, priority 2016, published 2021).

Entries after “also recorded” stand apart in the source; their conditions may differ.

Experiment [1] is described as follows: Active RAC1 detection after FGF7 treatment. It is filed as cell-based, human. The following applies: HaCaT cells, FGF7 10 ng/ml, 10 min. How it is done: FIG. 4D pertains to mouse primary keratinocytes (left panel) or HaCaT cells (right panel), which had been treated with FGF7 (10 ng/ml) or vehicle for 10 min and analyzed for active RAC1 using the Active RAC1 detection kit (Cell Signaling). Activation of FGFR signaling under these conditions was verified by phosphorylation of ERK1/2 (p42/44).

Experiment [2] deals with interferon-stimulated response element (ISRE). Kind of experiment: ISRE luciferase reporter assay in immortalized mouse keratinocytes. Type of experiment: cell-based. The settings on record: FGF7 10 ng/ml and/or IFNα 1000 U/ml, 12 h. How it is done: FIG. 3C pertains to immortalized mouse keratinocytes that were co-transfected with TK-Renilla and pGL4.45[luc2P/ISRE/Hygro] plasmids, starved in serum-free medium and then treated with FGF7 (10 ng/ml) and/or IFNα (1000 U/ml) for 12 h. Firefly luciferase activity was determined in cell lysates and normalized to Renilla luciferase activity (transfection control). The mean value in vehicle-treated cells (CTRL) was set to 1.
Mouse keratinocytes and HEK 293 cells were transfected with the expression vector for TK-Renilla and the expression vector pGL4.45[luc2P/ISRE/Hygro] (Promega). The latter contains five copies of an ISRE that drives expression of the luciferase reporter gene. Cells were seeded into 12-well plates, cultured for 24 h, and transfected using Lipofectamine 2000 […]. They were then starved in serum-free medium, treated with FGF7 (10 ng/ml) and/or IFNα (1000 U/ml) for 12 h, lysed and analyzed using a dual-luciferase assay system (Promega) as described by the manufacturer. Relative light units were measured in a GloMax 96 microplate luminometer with dual injectors (Promega).
For orientation: Reporter assays use an easily measured gene product as a stand-in for the process of interest.

Experiment [3] relates to interferon-stimulated genes (ISGs). Kind of experiment: ISG expression in human keratinocytes (HaCaT, primary foreskin) treated with FGF7, FGF10 and/or IFNα (qRT-PCR). Type of experiment: cell-based. The settings on record: human primary foreskin keratinocytes and HaCaT, FGF7 10 ng/ml and IFNα 500 U/ml, 16 h. How it is done:
FIG. 2F relates to serum-starved immortalized human keratinocytes (HaCaT cell line) that were treated for 6 h with FGF7, FGF10 (both 10 ng/ml) or vehicle (CTRL). RNA was analyzed by qRT-PCR for the expression of the indicated ISGs relative to RPLP0. Mean expression levels in CTRL cells were set to 1. Representative data from three experiments are shown. Scatter plot and mean values are shown in (A-D). Each dot represents a biological replicate.
FIGS. 3E and F pertain to confluent human primary foreskin keratinocytes and (E) or HaCaT cells (F) that were serum-starved for 24 h and treated with FGF7 (10 ng/ml) and/or IFNα (500 U/ml) for 16 h. Cells were analyzed for ISG mRNA levels by qRT-PCR relative to RPLP0. Mean expression levels in vehicle-treated (CTRL) cells were set to 1.
The human HaCaT keratinocyte cell line was cultured in DMEM (Sigma) supplemented with 10% FCS (Thermo Fisher). […]
Total RNA from isolated epidermis of mice or from total skin was purified with Trizol, followed by additional purification with the RNeasy Mini Kit, including on-column DNase treatment (Qiagen, Hilden, Germany). […] Relative gene expression was determined using the Roche LightCycler 480 SYBR Green system (Roche, Rotkreuz, Switzerland).

Experiment [4] deals with ISGs. The following applies: cultured lung airway epithelial cells, Prince et al.; cited from earlier work.
The test system of experiment [5] is LCMV. Type of experiment: cell-based, Lymphocytic Choriomeningitis Virus. The settings on record: HaCaT, LCMV MOI 0.05 or 0.2.
Experiment [6] relates to HSV-1. Kind of experiment: Ex vivo HSV-1 infection of epidermal sheets from mouse tail skin. Type of experiment: cell-based, Herpes Simplex Virus type 1. The settings on record: HSV-1 MOI=2, 48 h, FGF7 15 ng/ml, NSC23766 50 μM, AZD4547 1 μM. How it is done:
FIG. 7D pertains to epidermal sheets from tail skin of wild-type mice that were infected ex vivo with HSV-1 (MOI=2) in the presence or absence of IFNα, FGF7, NSC23766 or AZD4547 and analyzed by immunofluorescence staining 48 h after infection with antibodies against Glyc-D (red). […] Cell nuclei were stained using DAPI (blue). Magnification bar: 800 μm. Values obtained for HSV-1 infected cells in (A-C) without additional treatment were set to 1.
HSV-1 infection of epidermal sheets from mouse tails was performed as previously described (Rahn et al., J. Invest. Dermatol 135, 3009-3016, 2015). Briefly, skin was removed from the tails of 3 month-old mice, followed by separation of the epidermis from the dermis by dispase treatment (5 mg/ml). After floating the epidermal sheets on serum-free DMEM overnight, they were incubated with HSV-1 alone (MOI=2) or in combination with FGF7 (15 ng/ml), IFNα (1000 U/ml) and/or NSC23766 (50 μM) or AZD4547 (1 μM) for 48 h and subsequently fixed in 4% PFA for 1 h at RT. The sheets were then incubated in blocking solution (PBS 2% BSA/1% fish skin gelatin/0.05% Triton Tx-100) for 2 h at RT and stained overnight at 4° C. with an antibody against Glyc-D diluted in blocking solution. […]

Experiment [7] relates to interferon-stimulated genes (ISGs). Kind of experiment: ISG expression in mouse keratinocytes treated with FGF7 and/or IFNα (qRT-PCR). Type of experiment: cell-based.

B1: FGF7: recombinant human FGF7, the classical ligand of FGFR2b (protein, UniProt P21781 32-194, looked up)
Fibroblast growth factor 7: CNDMTPEQMATNVNCSSPERHTRSYDYMEGGDIRVRRLFCRTQWYLRIDKRGKVKGTQEMKNNYNIMEIRTVAVGIVAIKGVESEFYLAMNKEGKLYAKKECNEDCNFKELILENHYNTYASAKWTHNGGEMFVALNQKGIPVRGKKTKKEQKTAHFLPMAIT
In the case of B1, in experiment [1], the “active RAC1” value is reported as “activated RAC1”. The ISRE-driven luciferase activity result in experiment [2] is given as “counteracted”. The “increase in ISG expression in response to IFNα” value in experiment [3] is reported as “reduced”; in experiment [7] (mouse primary keratinocytes, FGF7 10 ng/ml and IFNα 1000 U/ml, 6 h), “reduced”. In experiment [4], the “expression of ISGs” value is “suppresses the expression of a limited number of ISGs”. Further, in experiment [5], the “expression levels of LCMV nucleoprotein (NP) / viral replication” value is “strongly increased”. Moreover, in experiment [6], the “HSV-1 infection / viral dissemination (Glyc-D staining)” value was “stronger; also recorded: A strong increase in infected cells”. For the same molecule, the “expression of Ifnα subtypes, Ifnβ and Il28a (Ifnλ2)” value in experiment [7] (mouse keratinocytes, FGF7 10 ng/ml) was “not reduced”. Besides, the “ISG expression (qRT-PCR relative to Rps29)” value in experiment [7] (primary and immortalized keratinocytes from wild-type mice, FGF7 10 ng/ml, 3 or 6 h) is listed as “strongly suppressed”. In experiment [7] (primary keratinocytes from Ifnar KO mice, FGF7 6 h), the “expression of ISGs in IFNAR-deficient cells” value is on record as “still suppressed expression of ISGs”.
